The values that follow come from article PMC12241658.

“And” between values parts separate entries of the source, which are not always exact repeats. Identical values can stand only once.

Assay [1] addresses recombinant human αβ hemoglobin, 6x His tag on the N-terminus of the α subunit (αβHb dimer) (human) (UniProt P69905). Description: BLI. (Biolayer interferometry detects binding as a change in optical thickness at a sensor tip.)
Assay [2] has as its target recombinant human αβ hemoglobin (αβHb dimer) (human) (UniProt P69905). In words: BLI.
In assay [3] the target is recombinant human adult hemoglobin (αβHb), αβ dimer (human) (UniProt P69905). In words: BLI.
For assay [4], the target named is ChuA (E. coli CFT073).

One may read the koff as the first-order rate constant of dissociation. The kon is a measure of how fast the partners come together. “ChuA (outer membrane heme transporter, TonB-dependent transporter) from E. coli CFT073 (receptor)”: in assay [1], the dissociation rate constant (koff) was 0.0574 s⁻¹ and 0.0449 s⁻¹ and 0.0512 s⁻¹; the on-rate (kon) was 158000 M⁻¹ s⁻¹ and 144000 M⁻¹ s⁻¹ and 173000 M⁻¹ s⁻¹.

As to ChuA (receptor), in assay [2], the koff was 0.0574 s⁻¹ and 0.0531 s⁻¹; the kon was 144000 M⁻¹ s⁻¹ and 118000 M⁻¹ s⁻¹.

As a reminder, the Kd is the free concentration of one partner at which half of the binding sites on the other are occupied at equilibrium, for simple one-to-one binding. Take “ChuA, outer membrane TonB-dependent heme/hemoglobin transporter of E. coli CFT073 (receptor)”: the Kd in assay [3] is 71.5 nM.

B1: recombinant human neuroglobin (natural protein)
chain: MERPEPELIRQSWRAVSRSPLEHGTVLFARLFALEPDLLPLFQYNCRQFSSPEDCLSSPEFLDHIRKVMLVIDAAVTNVEDLSSLEEYLASLGRKHRAVGVKLSSFSTVGESLLYMLEKCLGPAFTPATRAAWSQLYGAVVQAMSRGWDGE
In assay [4], B1 displayed an EC50 of the growth of E. coli ΔTBDT:ChuOP in LB liquid medium with 200 µM 2,2'-bipyridine, supplemented with serially diluted neuroglobin (nonlinear regression, three parameters) of 826 nM.

B2: recombinant human myoglobin (natural protein)
chain: MGLSDGEWQLVLNVWGKVEADIPGHGQEVLIRLFKGHPETLEKFDKFKHLKSEDEMKASEDLKKHGATVLTALGGILKKKGHHEAEIKPLAQSHATKHKIPVKYLEFISECIIQVLQSKHPGDFGADAQGAMNKALELFRKDMASNYKELGFQG
With B2, the EC50 of the growth of E. coli ΔTBDT:ChuOP in LB liquid medium with 200 µM 2,2'-bipyridine, supplemented with serially diluted myoglobin (nonlinear regression, three parameters) in assay [4] stood at 24200 nM.
